What all share (type): biochemical
The target of data set [1] is T1, Atr-2 protein (Homo sapiens, UniProt Q96Q15).
T1 construct: a region containing the putative kinase domain was subcloned into the mammalian expression vector, pCIneo; made in house; host or cells: 293T cells (transient transfection, anti-FLAG M2 immunoprecipitate on protein A beads)
The data set is described as follows: ATR-2 kinase assay, autophosphorylation (immunoprecipitated FLAG-tagged Atr-2 fragment from 293T cells, 32P-ATP, P81 paper). The conditions noted are these: immunoprecipitate from transfected 293T cells, 30° C. for 30 min. On the procedure: (§1) After 48 hr, cells were harvested and lysed in 0.5 ml lysis buffer (Example 6), and the lysates were precleared by incubation with 50 μl protein A beads for 2 hr at 4° C. The supernatant was immunoprecipitated with 6 μg anti-M2 antibody for one hr at 4° C. and the sample was divided into five aliquots. One hundred μl of the mixture was combined with 10 μl protein A beads for three hr at 4° C., after which the beads were washed twice with lysis buffer and three times in kinase buffer containing 10 mM HEPES, pH 7.4, 10 mM MnCl2, 50 mM NaCl, 10 mM MgCl2, and 5 mM DTT.
(§2) In the kinase assay, 10 μl protein A beads was mixed with 10 μl PKA and PKC inhibitors from a p79^S6 kinase assay kit (Upstate Biotechnology Inc., Lake Placid, N.Y.) and 10 μl ATP mixture: containing kinase buffer (above) with 10 mM ATP, 3 μCi ^32P-ATP, plus or minus 6 μl myelin basic protein as substrate. Reactions were incubated at 30° C. for 30 min and 20 μl of the reaction mixture was spotted onto P81 paper. The P81 paper was washed three times in 150 mM phosphoric acid and dried, and Cerenkov radiation measured.

Data set [2] relates to myelin basic protein. The data set is described as follows: ATR-2 kinase assay with exogenous substrate myelin basic protein. The settings on record: immunoprecipitate from transfected 293T cells, 30° C. for 30 min, 32P-ATP. How it is done: as §1, §2
In data set [3] the test system is PHAS-1. The data set is described as follows: ATR-2 kinase assay with substrate PHAS-1.
Data set [4] has as its system histone H1. The data set is described as follows: ATR-2 kinase assay with substrate histone H1.

B1: 73 kDa Atr-2 truncated protein: FLAG-tagged truncated human Atr-2 containing the putative kinase domain, expressed from pCIneoFLAGATR2 in 293T cells (protein)
chain: MLVAELRRVTVLWDELWLGVLLQQHMYVLRRIQQLEDEVKRVQNNNTLRKEEKIAIMREKHTALMKPIVFALEHVRSITAAPAETPHEKWFQDNYGDAIENALEKLKTPLNPAKPGSSWIPFKEIMLSLQQRAQKRASYILRLEEISPWLAAMTNTEIALPGEVSARDTVTIHSVGGTITILPTKTKPKKLLFLGSDGKSYPYLFKGLEDLHLDERIMQFLSIVNTMFATINRQETPRFHARHYSVTPLGTRSGLIQWVDGATPLFGLYKRWQQREAALQAQKAQDSYQTPQNPGIVPRPSELYYSKIGPALKTVGLSLDVSRRDWPLHVMKAVLEELMEATPPNLLAKELWSSCTTPDEWWRVTQSYARSTAVMSMVGYIIGLGDRHLDNVLIDMTTGEVVHIDYNVCFEKGKSLRVPEKVPFRMTQNIETALGVTGVEGVFRLSCEQVLHIMRRGRETLLTLLEAFVYDPLVDWTAGGEAGFAGAVYGGGGQQAESKQSKREMEREITRSLFSSRVAEIKVNWFKNRDEMLVVLPKLDGSLDEYLSLQEQLTDVEKLQGKLLEEIEFLEGAEGVDHPSHTLQHRYSEHTQLQTQQRAVQEAIQVKLNEFEQWITHYQAAFNNLEATQLASLLQEISTQMDLGPPSYVPA
modifications: left off: small tags and cut ends
notes: FLAG-tagged truncated human Atr-2 containing the putative kinase domain, expressed from pCIneoFLAGATR2 in 293T cells
As for B1, the “kinase activity: phosphorylation of the Atr-2 protein itself” value in data set [1] was “able to phosphorylate”. The “kinase activity: phosphorylation of exogenous myelin basic protein substrate” value in data set [2] is “able to phosphorylate”. For the same molecule, the “kinase activity: phosphorylation of PHAS-1” value in data set [3] is given as “did not phosphorylate”. Further, in data set [4], the “kinase activity: phosphorylation of histone H1” value is “did not phosphorylate”.

The values above are taken from patent US6815532B2, “ATR-2 cell cycle checkpoint” (ICOS Corporation, priority 1999, dated 2004).
